From US20230227538A1 (published 2023) come the findings set out here.

Assay [1] deals with SpikeS2P. The experiment in a line: SPR. In general terms: In SPR one partner is held on a chip, and binding of the other changes the refractive index at the surface.
The target of assay [2] is SARS-CoV-2 Spike receptor binding domain (RBD) (SARS-CoV-2, UniProt P0DTC2 319-541). In words: flow.
The target in assay [3] is SC2 spike ECD. The experiment in a line: SPR.

B1: mNb6 (VHH)
VHH: QVQLVESGGGLVQAGGSLRLSCAASGYIFGRNAMGWYRQAPGKERELVAGITRRGSITYYADSVKGRFTISRDNAKNTVYLQMNSLKPEDTAVYYCAADPASPAYGDYWGQGTQVTVSS
Usually Kd stands for the equilibrium constant for the complex coming apart. In the case of B1, binding in assay [1] was characterised by a dissociation constant (Kd) of 0.45 nM. In other words, the sub-nanomolar range.

B2: Nb6 (AeroNab6, NbCOV6, clone pNbCOV006A) (VHH)
VHH: QVQLVESGGGLVQAGGSLRLSCAASGIIFGRNAMGWYRQAPGKERELVAGITRRGSITYYADSVKGRFTISRDNAKNTVYLQMNSLKPEDTAVYYCAADPASPAPGDYWGQGTQVTVSS
As a reminder, the EC50 is the concentration needed to bring the measured effect to its halfway point. As for B2, in assay [2], the EC50 is 30 nM.

B3: NbCOV11 (VHH)
VHH: HVQLVESGGGLVQAGGSLRLSCAVSGASAERVGWFRRAPGKEREFVAAIGANGGSTNYLDSVKGRFTISRDNAKNTVYLQMNSLKPQDTAVYYCAARNLETFDYTYWGRGTQVTVSS
Turning to B3, the Kd in assay [3] is 141 nM.
